One assay concerns the target T1, MglA·MglB^A5 complex (Thermus thermophilus, UniProt Q5SJ82).
T1 sequence (Q5SJ82 1-196): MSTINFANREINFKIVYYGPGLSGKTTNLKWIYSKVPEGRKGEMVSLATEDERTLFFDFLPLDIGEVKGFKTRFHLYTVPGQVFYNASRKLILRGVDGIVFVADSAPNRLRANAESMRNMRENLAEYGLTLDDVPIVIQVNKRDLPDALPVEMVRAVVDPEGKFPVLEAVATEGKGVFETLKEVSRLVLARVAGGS
T1 sequence (Q5SJ83 6-139 E14A/R15A/G65S/R124A/E127A/R131A partner): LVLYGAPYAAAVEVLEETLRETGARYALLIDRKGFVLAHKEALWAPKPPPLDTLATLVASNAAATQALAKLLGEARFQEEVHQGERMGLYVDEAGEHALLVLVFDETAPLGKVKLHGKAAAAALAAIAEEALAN
Put plainly: X-ray crystal structure, […] Å. Format: binding. Particulars: with AlF4- as transition state mimic.

The target of a further assay is T2, T.t.MglA (Thermus thermophilus, UniProt Q5SJ82).
T2 sequence (Q5SJ82 1-196): T1 sequence (Q5SJ82 1-196)
Nature of the assay: X-ray crystal structure, […] Å. Format: binding. Particulars: no Mg2+ detected at the nucleotide.

The target in assay [1] is MglA from Thermus thermophilus HB8, wild type (Thermus thermophilus HB8). Nature of the assay: fluorescence polarisation.
The target of assay [2] is MglB from Thermus thermophilus HB8, residues 6-139 (Thermus thermophilus HB8). Nature of the assay: SEC.
Assay [3] deals with MglA from Thermus thermophilus HB8, wild type (Thermus thermophilus HB8). Put plainly: SEC.
The target of assay [4] is MglB from Thermus thermophilus HB8, residues 6-139 (Thermus thermophilus HB8). Put plainly: crystal structure.
Assay [5] shares this target. Put plainly: crystal structure. This is another data set of the same source.
For assay [6], the target named is MglA from Thermus thermophilus HB8, wild type (Thermus thermophilus HB8). Nature of the assay: fluorescence polarisation. The source holds these as a separate data set.
For assay [7] the target is unchanged. Nature of the assay: crystal structure.

Where two headings read alike, the source gives them in different places.

`Nc1nc2c(ncn2[C@@H]2O[C@H](COP(=O)(O)OP(=O)(O)O)[C@@H](O)[C@H]2O)c(=O)[nH]1` [GDP]: on MglA·MglB^A5 complex, the “X-ray crystal structure, 2.2 Å” value is listed as 3T12 (MglA·GDP·AlF4-·MglB^A5). The “X-ray crystal structure, 1.9 Å” value on T.t.MglA was 3T1O (MglA·GDP).
As to “MglB from Thermus thermophilus HB8, residues 6-139 (domain or fragment)”, the dissociation constant Kd in assay [1] is 3.2 µM; in assay [6] it was 2 µM. Besides, in assay [1], the stoichiometry N (MglB monomers per MglA) was determined as 2. The stoichiometry N was found to be 2 in assay [2], 2 in assay [4] and 4 in assay [5]. In assay [3], the stoichiometry N (MglB per MglA) stood at 2.
In [7], “MglB^A5 (E14/R15/R124/E127/R131A), residues 6-139 (domain or fragment)” displayed a stoichiometry N (MglB per MglA) of 2.
For the compound “MglB^A68/72R, residues 6-139 (domain or fragment)”, the equilibrium dissociation constant (Kd) in assay [1] amounted to 34.6 µM. This counts as double-digit micromolar.

Values taken from article PMC3199381 (The EMBO Journal, 2011).
